# According to a protein production outcome set (Wang et al. 2014):
# Test: label from the status in PepcDB records
# 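Further: failed if final PepcDB status was selected cloned or expressed and not failed if soluble or beyond.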
row,Sequence,protein production
1,MGKKNPNARHTDAATPLTTDDSNSSSVSRRESATESKSASESESSPPRSNTKQSRTHKNVKASGKATVSSSSDSDQAVANSSANDEEKEPVCKIRIVPLEKLLASPKTKERPSRGSQQKNVTINDSSDEEPLKGSKLVLPARKSRNKNAS,failed
2,MGKKYEIFLNENEHSLITPKVSFKEILRYYYLYPKNAIPSFKLPFFKPDLSGFSTPHITWLGHSSLFISFKEYKILIDPIFNTHASPISFINKAFKNAPVYNINDFNEIFAVIITHSHFDHLDAKSVKALKDKAKFFITPLKVGNYLKSYGVSEKKIIELDWWSGIEFGDLKIMATPAQHSSSRGDGKNKTLWASFVMEFLSVDKRVFFSADGGYFTHFKKIGEYFGSFDLACLESGQFNIAWPYSHSFPEQILKEAKDLNAKAVMPIHWGRFLAGTHAWNEVVKFLYENLDLPLITPKMGEAYEVGAKLEHHHHHH,not failed
3,MGKRFSSFQAAQIRIARPTGQLDEIIRFYEEGLCLKRIGEFSQHNGYDGVMFGLPHADYHLEFTQYEGGSTAPVPHPDSLLVFYVPNAVELAAITSKLKHMGYQEVESENPYWSNGGVTIEDPDGWRIVFMNSKGISGK,not failed
4,MGKRSSNDLPPVEASMARHIIHFTGPINSSTCGNLITTCSRALQQGAELLQLNIATMGGECSYGFTLYNFLRALPVEVHTHNLGTVESMGNILFLAGERRTACSFSKFLFHPFHWTLHGSVDHSRMSEYAMSLDYDLRLYAQIVAERTKGAAEVLDVPRYLMAYPRILAPREALENGMIHEIDEMPIASDATQWSVHA,failed
5,MGKSDFLSPKAIANRIKSKGLQKLRWYCQMCQKQCRDENGFKCHCMSESHQRQLLLASENPQQFMDYFSEEFRNDFLELLRRRFGTKRVHNNIVYNEYISHREHIHMNATQWETLTDFTKWLGREGLCKVDETPKGWYIQYIDRDPETIRRQLELEKKKKQDLDDEEKTAKFIEEQVRRGLEGKEQETPVFTELS,not failed
6,MGKTAIKSTAKVLSFVVQKHWATRLHYDFRLELEGTMKSWAVPKGPSFDPNDKRMAVHVEDHPISYNSFEGEIPSGQYGAGKVIIWDKGTWIPLEDPHKGYRDGKLKFELRGLKLKGHWALVRMRKEENKKQEPWLLIKEKDEYVRSSREYSVVDEMPDSVAELEHHHHHH,not failed
7,MGKTMITRALWSYAHRYRPQERWGILKPMQSGTAVEIGDGDYYCQTLPLEQTPREVCPLSFAAPLAPPIAAQLENRRIDLAPLWQTYQQLQERFDYLLVEGIGGLGSPITWEWTVADLAAAWKLPIVLVATVRLGAIAQIVANIALARQYQLVIRGLILNCVSPCSDAEIEQWTPPVFLSRFTQVPVLGVLPYGQHSNEQLAAMVAEWPLDLLWR,failed
8,MGKVIGIDLGTTNSCASVLEGGKPIVITNTEGGRTTPSIVGFTKGSQRLVGQLAKRQSVTNAENTVYSIKRFIGRRWDDTVEERSRVPYNCVKGRDDTVSVSIRGQSYTPQEISAMILQKLKADSEAFLGEPVTQAVITVPAYFTDAQRQATKDAGTIAGLEVLRIINEPTAAALAYGLDKQETEELILVFDLGGGTFDVSLLQLGNGVFEVLSTSGNNHLGGDDFDNCVVQWMAESFKQKENIDLSTDKMAIQRLREAAEKAKIELSSMLNTTINLPFITADESGPKHLEMELARSQFEELTKQLLEDTRVPLTQALDDGEIRASDVHRVILVGGSTRIPAIQRVIQEFFPDSQLERSVNPDEAVALGAAIQAGVIGGEVEDVLLLDVTPLSLGLETLGEVTTKIIERNTTIPTSRSEVFSTAVDGQTSVEIHVIQGERAMARDNKSLGKFLLAGIPPAPRGMPQIEVSFEIDVNGILKVSAQDQGTGKEQSIVISHTGGLSGGEIEKMRQEAQQYAAQDQLRLRMMELQNQADSLFHTYETTLQESGELVREELKSSGKQKKDQLAIALRTPNTPVEKLQTLVEEFRQIILLIGTEVYQQGKGAASNEFANFVQGTSSGTSQMIESLETNLNPIQASSGITMTPGTMINGTVNPGGMDYVETAPVYGLDDGEEFDFDADETVYSDYEAID,failed
9,MGLDVDWALDWLKLSAKAMAEHRVELIELDRPIGDSDHGENMDRGFQAVLQKLDETPPETPGAALKAAAMALMSKVGGAAGPLYGTAYLRAATSLGDAGDIDAEALAAALAAARDGVVARGKAELGDKTMIDAWTPAVEAAQKAAASGADPVAVLEAAAEAAETGAMATDPLVARKGRASYLGERSAGHRDPGAASTALLLRAAAAAAAGSTADKGADAV,failed
10,MGLEEELLRIAKKLEKMVSRKKTEGALDLLKKLNSCQMSIQLLQTTRIGVAVNGVRKHCSDKEVVSLAKVLIKNWKRLLDSPRTTKGERE,not failed
11,MGLLDHLWDDTVAGPRPENGLGKLRKHHTFSFRPSSGNDQSEAGSARSYGEDSLPEEAVKVTRSIMIIKPPGYQGSSAPASPAGSTPPLSPFSPPLSPFSANAGGKEPFRFRRRSTSDAFEKAAGGSETGPRSSPPTYGM,failed
12,MGLLSDPVRRRALARLVLRLNAPLCVLSYVAGIAWFLALVFPPLTQRTYMSENAMGSTMVEEQFAGGDRARAFARDFAAHRKKSGALPVAWLERTMRSVGLEVYTQSFSRKLPFPDETHERYMVSGTNVYGILRAPRAASTESLVLTVPCGSDSTNSQAVGLLLALAAHFRGQIYWAKDIVFLVTEHDLLGTEAWLEAYHDVNVTGMQSSPLQGRAGAIQAAVALELSSDVVTSLDVAVEGLNGQLPNLDLLNLFQTFCQKGGLLCTLQGKLQPEDWTSLDGPLQGLQTLLLMVLRQASGRPHGSHGLFLRYRVEALTLRGINSFRQYKYDLVAVGKALEGMFRKLNHLLERLHQSFFLYLLPGLSRFVSIGLYMPAVGFLLLVLGLKALELWMQLHEAGMGLEEPGGAPGPSVPLPPSQGVGLASLVAPLLISQAMGLALYVLPVLGQHVATQHFPVAEAEAVVLTLLAIYAAGLALPHNTHRVVSTQAPDRGWMALKLVALIYLALQLGCIALTNFSLGFLLATTMVPTAALAKPHGPRTLYAALLVLTSPAATLLGSLFLWRELQEAPLSLAEGWQLFLAALAQGVLEHHTYGALLFPLLSLGLYPCWLLFWNVLFWK,failed
13,MGLMKFQLFIQPKLDVLQGNIVEYEILLRDDSAVPRFPLSELEAVLADEELYLAFSEWFSEAFLDVLKKYPNDRFAINIAPQQLFYIETLHWLDKLKSESHRITVEMTEDIFDVPGHKRHLNANDKNAFILNKIKVIHGLGYHIAIDDVSCGLNSLERVMSYLPYIIEIKFSLIHFKNIPLEDLLLFIKAWANFAQKNKLDFVVEGIETKETMTLLESHGVSIFQGYLVNKPFPV,not failed
14,MGLNSKAEVAKSRKNAAEAEQKDRQTREKEEQYWREAEGPKSKAVKKREEEAEKKAETAAKKLEAKRLAEQEEKELEKALKKPDKKANRVTVPVPKVTEAELIRRREEDQVALAKKAEDSKKKQTRMAGEDEYEKMVLVTNTNRDDSLIEAHTVDEALARITVSDNLPVDRHPEKRLKASFKAYEEVELPRLKSEKPGLTHTQYKDLIWKMWKKSPDNPLNQAAAAAANE,failed
15,MGLSNKFKSFFFLDEEEEYYEEEVAREPEPMQKKTKKEKPSKNRFYAVEEEDAKVVSMQGAQFSSRMVLAEPRVYAEAQELADYLKDYKTVVVNLQRISHDQATRIVDFLSGTVYALGGDIQRVGNNIFLTPDNVEVNGSISEMLDEQNFMLEHHHHHH,failed
16,MGMTVVIILVFSFFVAIVTAETSPYIIHMDLSAKPLPFSDHRSWFSTTLTSVITNRKPKIIYAYTDSVHGFSAVLTNSELQRLKHKPGYVSFTKDLPVKLHTTFSPKFIGLNSTSGTWPVSNYGAGIVIGIIDTGIWPDSPSFHDDGVGSVPSKWKGACEFNSSSLCNKKLIGAKVFNKGLFANNPDLRETKIGQYSSPYDTIGHGTHVAAIAAGNHVKNASYFSYAQGTASGIAPHAHLAIYKAAWEEGIYSSDVIAAIDQAIRDGVHVISLSLGLSFEDDDDNDGFGLENDPIAVASFAAIQKGVFVVTSGGNDGPYYWSLINGAPWIMTVGAGTIGRQFQGTLTFGNRVSFSFPSLFPGEFPSVQFPVTYIESGSVENKTLANRIVVCNENINIGSKLHQIRSTGAAAVVLITDKLLEEQDTIKFQFPVAFIGSKHRETIESYASSNKNNATAKLEFRKTVIGTKPAPEVGTYSSRGPFTSFPQILKPDILAPGTLILSAWPSVEQITGTRALPLFSGFNLLTGTSMAAPHVAGVAALIKQVHPNWSPSAIKSAIMTTALTLDNPLAVGAGHVSTNKVLNPGLIYDTTPQDFINFLCHEAKQSRKLINIITRSNISDACKKPSPYLNYPSIIAYFTSDQSSPKIFKRTLTNVGEAKRSYIVRVRGLKGLNVVVEPKKLMFSEKNEKLSYTVRLESPRGLQENVVYGLVSWVDEDEAEFEVSCSVVATSLVQES,failed
17,MGNDNVTIKLEHRVKTSADLSDYVYKYERAYTDALNNGDDIKEASESTKKELNQLIDRTDLTYSDGMYDKETGIAAIAVKDKNTGETYIAYAGTNKDADGATDFISDANIGANNSAYLKRLGDKATSFYDRVQSNGDNITVTTGHSYGDFLASRVAIELIPFFINFRKVNDSFHFCY,failed
18,MGNGLAKCLIDGDTETFWHAKWQGGSDPLPYDIVIDMKQNIQIAQVELLPRGRGSNNPIKVVEFAASEDNVNWTPIGRFGFTNQDAALEYYVKSIKARYIRLTIPDDGGNSTVAAIRELDVKGTIINLEHHHHHH,failed
19,MGNHFSKLGFVLAALGSAIGLGHIWRFPYMTGVSGGGAFVLLFLFLSLSVGAAMFIAEMLLGQSTQKNVTEAFKELDINPKKRWKYAGLLLVSGPLILTFYGTILGWVLYYLVSVSFNLPNNIQESEQIFTQTLQSIGLQSIGLFSVLLITGWIVSRGIKEGIEKLNLVLMPLLFATFFGLLFYAMSMDSFSKAFHFMFDFKPKDLTSQVFTYSLGQVFFSLSIGLGINITYAAVTDKTQNLLKSTIWVVLSGILISLVAGLMIFTFVFEYGANVSQGTGLIFTSLPVVFGQMGAIGILVSILFLLALAFAGITSTVALLEPSVMYLTERYQYSRFKVTWGLVALIFVVGVVLIFSLHKDYKDYLTFFEKSLFDWLDFASSTIIMPLGGMATFIFMGWVLKKEKLRLLSVHFLGPKLFATWYFLLKYITPLIVFSIWLSKIY,failed
20,MGNMISAVVAAAGRGSRMMRDMAELGLEPVHKLLLPLNGVTVIEATVKAVLSAGVDECIVVTGHRAGEVEEALSGMDVRVVRNDPVDVPLSASLLRGVRAAGGDIILCAAGDQPAVSPATLRRIAEHADGSTVSILARGESGWLDNARGIGMPLAAGADLLRDYLPLGDGNINPLLWMMLEDGVRLYGVEASRPIELVNINHYSDYLRIRDHFLRTNADGN,failed
21,MGPIGAEADENQTVEEMKVEQYGPQTTPRGELVPDPEPELIDSTKLIEVQVVLILAYCSIILLGVIGNSLVIHVVIKFKSMRTVTNFFIANLAVADLLVNTLCLPFTLTYTLMGEWKMGPVLCHLVPYAQGLAVQVSTITLTVIALDRHRCIVYHLESKISKRISFLIIGLAWGISALLASPLAIFREYSLIEIIPDFEIVACTEKWPGEEKSIYGTVYSLSSLLILYVLPLGIISFSYTRIWSKLKNHVSPGAANDHYHQRRQKTTKMLVCVVVVFAVSWLPLHAFQLAVDIDSQVLDLKEYKLIFTVFHIIAMCSTFANPLLYGWMNSNYRKAFLSAFRCEQRLDAIHSEVSVTFKAKKNLEVRKNSGPNDSFTEATNV,failed
